Here are results for one substance from patent US20140302028A1.

A word on the koff: it is a measure of how fast the partners let go of each other. For orientation: kon means the second-order rate constant of association. One may read the Kd as the concentration at which binding is half-saturated.

Assay [1] concerns the target recombinant human FcRn (Sino Biological Inc.) (human) (UniProt P55899). Nature of the assay: SPR (Biacore T100), human FcRn immobilised, pH 6, two-state model, complex formation.
Assay [2] has as its target recombinant mouse FcRn (R&D Systems) (mouse) (UniProt Q61559). In words: SPR (Biacore T100), mouse FcRn immobilised, pH 6, two-state model. Background: Surface plasmon resonance follows binding to a sensor surface in real time, without labels.
Assay [3] deals with recombinant human FcRn (Sino Biological Inc.) (human) (UniProt P55899). In words: SPR (Biacore T100), human FcRn immobilised, pH 6, two-state model, complex stabilization.
The target in assay [4] is recombinant mouse FcRn (R&D Systems) (mouse) (UniProt Q61559). Nature of the assay: SPR (Biacore T100), mouse FcRn immobilised, pH 6, two-state model, complex stabilization.
Assay [5] has the same target. Nature of the assay: SPR (Biacore T100), mouse FcRn immobilised, pH 6, two-state model, complex formation.
The target in assay [6] is recombinant human FcRn (Sino Biological Inc.) (human) (UniProt P55899). Nature of the assay: SPR (Biacore T100), human FcRn immobilised, pH 6, two-state model.

Sequence of UniProt Q61559 (Q61559 22-297 limits assumed, chain 1 of 2): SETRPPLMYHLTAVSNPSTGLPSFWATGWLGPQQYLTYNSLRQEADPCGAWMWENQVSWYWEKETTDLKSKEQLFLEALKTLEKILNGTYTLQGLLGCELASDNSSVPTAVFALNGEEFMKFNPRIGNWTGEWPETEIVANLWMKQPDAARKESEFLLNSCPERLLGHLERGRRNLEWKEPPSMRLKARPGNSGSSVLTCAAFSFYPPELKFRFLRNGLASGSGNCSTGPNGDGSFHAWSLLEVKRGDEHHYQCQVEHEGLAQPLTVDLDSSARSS
Sequence of UniProt Q61559 (chain, as listed by the source limits assumed, chain 2 of 2): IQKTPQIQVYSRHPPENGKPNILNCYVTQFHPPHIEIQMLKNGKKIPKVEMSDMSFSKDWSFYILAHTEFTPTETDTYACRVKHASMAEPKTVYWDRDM
Sequence of UniProt P55899 (P55899 24-297 limits assumed, chain 1 of 2): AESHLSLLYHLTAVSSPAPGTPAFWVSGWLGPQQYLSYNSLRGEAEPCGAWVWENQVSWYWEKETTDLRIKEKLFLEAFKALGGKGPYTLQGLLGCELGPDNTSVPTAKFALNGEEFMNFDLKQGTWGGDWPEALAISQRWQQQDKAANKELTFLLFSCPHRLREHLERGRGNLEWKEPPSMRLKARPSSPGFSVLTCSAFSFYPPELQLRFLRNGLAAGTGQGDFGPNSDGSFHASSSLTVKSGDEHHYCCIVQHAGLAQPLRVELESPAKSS
Sequence of UniProt P55899 (chain, as listed by the source limits assumed, chain 2 of 2): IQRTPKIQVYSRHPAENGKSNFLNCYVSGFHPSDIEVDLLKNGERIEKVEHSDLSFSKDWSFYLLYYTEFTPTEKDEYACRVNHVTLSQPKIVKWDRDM

Consider HUMIRA ® (antibody), for which the koff in assay [1] was 0.313 s⁻¹; in assay [5], 0.0153 s⁻¹. Further, the values for the kon in assay [1] and in assay [5] were 5.99e+06 M⁻¹ s⁻¹ and 159000 M⁻¹ s⁻¹, respectively. Moreover, the equilibrium dissociation constant (Kd) in assay [2] was found to be 6.66 nM; in assay [6] it was 34 nM. The kd (Complex Stabilization) in assay [3] turned out to be 0.00155 s⁻¹; in assay [4], 0.000107 s⁻¹.
